According to patent publication US20240228562A1 (Pieris, published 2024):

T1: recombinant rat CTGF protein (R&D Systems) (rat, UniProt Q9R1E9 25-347)
T1 construct: Bought; also called rCTGF
T1 sequence: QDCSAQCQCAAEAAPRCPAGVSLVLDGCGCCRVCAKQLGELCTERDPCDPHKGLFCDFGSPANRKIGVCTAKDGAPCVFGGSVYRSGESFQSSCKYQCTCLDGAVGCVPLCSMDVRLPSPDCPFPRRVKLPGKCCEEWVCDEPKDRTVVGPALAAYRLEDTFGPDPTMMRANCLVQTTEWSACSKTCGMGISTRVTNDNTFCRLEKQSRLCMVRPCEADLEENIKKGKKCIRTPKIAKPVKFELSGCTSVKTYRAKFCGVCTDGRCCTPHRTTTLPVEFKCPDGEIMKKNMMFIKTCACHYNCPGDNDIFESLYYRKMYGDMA

T2: huCYR61 (human, UniProt O00622 25-381, limits assumed)
T2 construct: also called human CYR61 (CCN1)
T2 sequence (looked up): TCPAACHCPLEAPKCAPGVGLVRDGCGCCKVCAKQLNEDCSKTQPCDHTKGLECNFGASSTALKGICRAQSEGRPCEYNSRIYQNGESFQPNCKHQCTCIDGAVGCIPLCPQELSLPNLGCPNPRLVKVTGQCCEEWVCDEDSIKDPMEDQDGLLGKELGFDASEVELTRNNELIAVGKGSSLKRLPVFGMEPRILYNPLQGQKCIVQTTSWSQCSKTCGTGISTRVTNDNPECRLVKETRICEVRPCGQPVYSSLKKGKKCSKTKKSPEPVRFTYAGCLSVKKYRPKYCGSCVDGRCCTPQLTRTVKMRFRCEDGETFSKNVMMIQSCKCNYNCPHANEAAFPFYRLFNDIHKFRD

T3: huWISP-3 (human, UniProt O95389 24-354, limits assumed)
T3 construct: also called human WISP-3 (CCN6)
T3 sequence (looked up): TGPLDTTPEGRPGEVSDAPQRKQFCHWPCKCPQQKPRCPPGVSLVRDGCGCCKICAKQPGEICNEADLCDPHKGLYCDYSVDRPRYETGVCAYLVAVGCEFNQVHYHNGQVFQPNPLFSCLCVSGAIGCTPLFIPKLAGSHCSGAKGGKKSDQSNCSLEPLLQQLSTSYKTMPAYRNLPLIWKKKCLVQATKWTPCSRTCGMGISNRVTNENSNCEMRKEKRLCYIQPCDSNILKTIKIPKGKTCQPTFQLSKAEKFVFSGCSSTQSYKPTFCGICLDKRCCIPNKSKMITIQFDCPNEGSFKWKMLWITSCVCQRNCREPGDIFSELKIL

T4: huWISP-2 (human, UniProt O76076 24-250, limits assumed)
T4 construct: also called human WISP-2 (CCN5)
T4 sequence (looked up): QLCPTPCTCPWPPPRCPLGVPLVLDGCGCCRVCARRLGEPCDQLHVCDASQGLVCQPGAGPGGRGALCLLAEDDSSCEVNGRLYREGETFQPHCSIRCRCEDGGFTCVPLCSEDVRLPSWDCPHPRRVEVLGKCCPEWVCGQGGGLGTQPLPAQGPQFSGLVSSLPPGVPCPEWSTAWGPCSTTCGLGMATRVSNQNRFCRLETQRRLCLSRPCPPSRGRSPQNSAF


What was measured:
[1] = target: T1, recombinant rat CTGF protein (R&D …); experiment: SPR (Biacore)
Outline: (§1)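 Lipocalin muteins injected at 25 °C over CTGF either Fc-tagged and captured by anti-human IgG-Fc (0.25-2.5 μg/mL in HBS-EP+, 180 s) or amine-coupled directly to a CM5 chip. Association 180 s, dissociation 900-3600 s, flow 30 μL/min.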

[2] = target: T5, recombinant human CTGF-Fc protein (Creative Biomart) (human); experiment: SPR (Biacore)
T5 construct: Bought; also called human CTGF with a human IgG1 Fc Tag
T5 sequence (chain, as listed by the source limits assumed): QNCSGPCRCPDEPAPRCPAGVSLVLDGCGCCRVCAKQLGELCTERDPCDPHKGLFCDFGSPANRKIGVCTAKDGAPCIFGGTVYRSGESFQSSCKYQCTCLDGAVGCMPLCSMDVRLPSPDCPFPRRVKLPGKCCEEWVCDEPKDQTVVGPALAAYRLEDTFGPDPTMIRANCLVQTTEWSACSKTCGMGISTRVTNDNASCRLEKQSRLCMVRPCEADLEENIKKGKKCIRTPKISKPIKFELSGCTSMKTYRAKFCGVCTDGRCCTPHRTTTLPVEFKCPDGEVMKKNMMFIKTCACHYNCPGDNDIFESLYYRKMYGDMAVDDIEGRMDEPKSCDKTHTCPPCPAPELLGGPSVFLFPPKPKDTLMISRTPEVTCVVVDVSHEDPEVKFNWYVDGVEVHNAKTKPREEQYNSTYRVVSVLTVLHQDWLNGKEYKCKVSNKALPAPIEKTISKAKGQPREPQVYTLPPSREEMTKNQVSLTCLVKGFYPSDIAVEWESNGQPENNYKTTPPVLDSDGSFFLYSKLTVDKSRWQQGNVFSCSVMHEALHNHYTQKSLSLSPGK
Outline: as §1

[3] = target: T2, huCYR61; experiment: ELISA, coated CCN protein
Protocol: (§2) Binding of muteins to closely related proteins of CTGF was tested by an ELISA assay. In detail, a 384-well plate suitable for fluorescence measurements (Greiner FLUOTRAC™ 600, black flat bottom, high-binding) was coated with 20 μl of human CTGF or the other members of the CCN protein family at a concentration of 1 μg/ml in PBS over night at 4° C. After washing with PBS with 0.05% Tween 20, wells were blocked with 100 μl blocking buffer containing 0.1% Tween 20 and 2% BSA (PBS-T/BSA) for 1 h at room temperature. 20 μl of serially diluted muteins starting at 1000 nM were incubated in PBS-T/BSA for 1 h at room temperature (RT).
(§3) The residual supernatants were discarded and 20 μl HRP-labeled anti-NGAL or anti-Strep-Tag antibody was added at a predetermined optimal concentration in PBS-T/BSA and incubated for 1 h at RT. After washing, 20 μl fluorogenic HRP substrate (QuantaBlu, Thermo) was added to each well, and the reaction was allowed to proceed for 2 to 60 minutes. The fluorescence intensity of every well on the plate was read using a fluorescence microplate reader (Tecan). When the signal for human CTGF approached saturation, the cross reactivity to the other proteins was assessed.

[4] = target: T3, huWISP-3; experiment: ELISA, coated CCN protein
Protocol: as §2, §3

[5] = target: T4, huWISP-2; experiment: ELISA, coated CCN protein
Protocol: as §2, §3

Binder | Kd [1] [nM] | koff [1] [s⁻¹] | kon [1] [M⁻¹ s⁻¹] | Kd [2] [nM] | koff [2] [s⁻¹] | kon [2] [M⁻¹ s⁻¹] | binding result [3] | binding result [4] | binding result [5]
lipocalin mutein of SEQ ID NO: 29 (designed binder, Parent hNGAL mutein; also called hNGAL mutein) QDSTSDLIPAPPLSKVPLQQNFQDNQFHGKWYVVGWAGNIKLREDKDPFKMSATIYELKEDKSYNVTEVVFEQKKCHYIIKTFVPGSQPGEFTLGDIKSPPGETSSLVRVVSTNYNQHAMVFFKKVFQNREFFWITLYGRTKELTSELKENFIRFSKSLGLPENHIVFPVPIDQCIDGSAWSHPQFEK | 18 | 0.00317 | 176000 | 11.2 | 0.00112 | 100000 | no binding (tested: dilutions starting at 1000 nM) | no binding (tested: dilutions starting at 1000 nM) | no binding (tested: dilutions starting at 1000 nM)
lipocalin mutein of SEQ ID NO: 7 (designed binder, Parent hNGAL mutein; also called hNGAL mutein) QDSTSDLIPAPPLSKVPLQQNFQDNQFHGKWYVVGLAGNYGLRTDKRPSKMFATIYELKEDKSYDVTSVRFEQERCHYTIRTFVPGSQPGEFTTGSIKSRPGQTSSLVRVVSTNYNQHAMVFFKSVIQNREYFAITLYGRTKELTSELKENFIRFSKSLGLPENHIVFPVPIDQCIDGSAWSHPQFEK | 62.8 | 0.00754 | 120000 | 60.2 | 0.00587 | 97600 | no binding (tested: dilutions starting at 1000 nM) | no binding (tested: dilutions starting at 1000 nM) | no binding (tested: dilutions starting at 1000 nM)
lipocalin mutein of SEQ ID NO: 25 (designed binder, Parent hNGAL mutein; also called hNGAL mutein) QDSTSDLIPAPPLSKVPLQQNFQDNQFHGKWYVVGMAGNFRLREDKDPSKMGATIYELKEDKSYNVTQVQFDDKKCLYVIETFVPGSQPGEFTLGAIKSFPGFTSQLVRVVSTNYNQHAMVFFKKVYQNREVFWITLYGRTKELTSELKENFIRFSKSLGLPENHIVFPVPIDQCIDGSAWSHPQFEK | 27.7 | 0.00129 | 46500 | 9.27 | 0.000248 | 26800 | no binding (tested: dilutions starting at 1000 nM) | no binding (tested: dilutions starting at 1000 nM) | no binding (tested: dilutions starting at 1000 nM)

The remaining binders from weak to strong by Kd [1], led by results:

Kd [1] [nM] | koff [1] [s⁻¹] | kon [1] [M⁻¹ s⁻¹] | Kd [2] [nM] | koff [2] [s⁻¹] | kon [2] [M⁻¹ s⁻¹] | Binder | binding result [3] | binding result [4] | binding result [5]
39.3 | 0.0117 | 297000 | 37.5 | 0.00749 | 200000 | lipocalin mutein of SEQ ID NO: 3 (designed binder, Parent hNGAL mutein; also called hNGAL mutein) QDSTSDLIPAPPLSKVPLQQNFQDNQFHGKWYVVGRAGNNRLREDKDPPKMWATIYELKEDKSYNVTHVHFMTKKCRYIIDTFVPGSQPGEFTLGAIKSGPGMTSPLVRIVSTNYNQHAMVFFKWVNQNREWFTITLYGRTKELTSELKENFIRFSKSLGLPENHIVFPVPIDQCIDGSAWSHPQFEK | no binding (tested: dilutions starting at 1000 nM) | no binding (tested: dilutions starting at 1000 nM) | no binding (tested: dilutions starting at 1000 nM)
16 | 0.00169 | 105000 | 12.8 | 0.00102 | 79800 | lipocalin mutein of SEQ ID NO: 9 (designed binder, Parent hNGAL mutein; also called hNGAL mutein) QDSTSDLIPAPPLSKVPLQQNFQDNQFHGKWYVVGLAGNKILRIDKQPAKMFATIYELKEDKSYDVTSVRFEARSCSYTIKTFVPGSQPGEFTAGNIKSAPGQTSTLVRVVSTNYNQHAMVFFKHVSQNRETFVITLYGRTKELTSELKENFIRFSKSLGLPENHIVFPVPIDQCIDGSAWSHPQFEK | no binding (tested: dilutions starting at 1000 nM) | no binding (tested: dilutions starting at 1000 nM) | no binding (tested: dilutions starting at 1000 nM)
0.95 | 0.000114 | 120000 | 0.547 | 4.47e-05 | 81700 | lipocalin mutein of SEQ ID NO: 15 (designed binder, also called hNGAL mutein; not shown: C-terminal His-tag) QDSTSDLIPAPPLSKVPLQQNFQDNQFQGKWYVVGLAGNAILREDKQPAKMFATIYELKEDKSYDVTSVRFEAKSCKYTIKTFVPGSQPGEFTAGYIKSAPGQTSTLVRVVSTNYNQHAMVFFKHVTQNREIFVITLYGRTKELTSELKENFIRFSKSLGLPENHIVFPVPIDQCIDG | no binding (tested: dilutions starting at 1000 nM) | no binding (tested: dilutions starting at 1000 nM) | no binding (tested: dilutions starting at 1000 nM)
